Source: paper PMC8910226

Target: F-actin (phalloidin-stabilized) (UniProt P68139)
Assay: co-sedimentation; S1 fixed at 1.5 μM, phalloidin-stabilized F-actin 0-4 μM; rigor conditions (no nucleotide); 100 mM NaCl, 200 mM sodium phosphate pH 7, 5 mM MgCl2, 4 mM DTT; 15 min at 4 °C, 70,000 RPM 60 min 4 °C; SDS-PAGE densitometry of pellet, hyperbolic fit; Kd = F-actin concentration at half Bmax; N = 3

Substance: R369H myosin subfragment-1 (S1) motor domain, Drosophila indirect flight muscle myosin (domain or fragment)
- Kd: 1.1 µM

Substance: control myosin subfragment-1 (S1) motor domain, Drosophila indirect flight muscle myosin (domain or fragment)
- Kd: 1.26 µM
